Results: patent US20220324953A1 (JIANGSU HENGRUI MEDICINE, published 2022)

T1: Mouse CTGF protein-His tag (mouse, UniProt P29268 26-348)
T1 construct: C-terminal His tag; also called mouse CTGF-his protein; mouse CTGF fusion protein
T1 sequence: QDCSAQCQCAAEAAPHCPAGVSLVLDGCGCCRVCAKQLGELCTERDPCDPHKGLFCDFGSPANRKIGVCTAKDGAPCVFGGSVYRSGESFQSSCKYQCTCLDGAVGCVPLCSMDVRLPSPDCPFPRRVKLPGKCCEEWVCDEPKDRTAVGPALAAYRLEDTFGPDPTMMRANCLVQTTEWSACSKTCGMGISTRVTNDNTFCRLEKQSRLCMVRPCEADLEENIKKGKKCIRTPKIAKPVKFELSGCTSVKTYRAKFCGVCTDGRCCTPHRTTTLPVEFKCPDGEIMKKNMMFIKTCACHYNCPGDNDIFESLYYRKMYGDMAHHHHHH

T2: human CTGF (antigen of the Biacore assays) (human, UniProt P29279 27-349)
T2 construct: also called antigen human CTGF; human CTGF protein
T2 sequence (looked up): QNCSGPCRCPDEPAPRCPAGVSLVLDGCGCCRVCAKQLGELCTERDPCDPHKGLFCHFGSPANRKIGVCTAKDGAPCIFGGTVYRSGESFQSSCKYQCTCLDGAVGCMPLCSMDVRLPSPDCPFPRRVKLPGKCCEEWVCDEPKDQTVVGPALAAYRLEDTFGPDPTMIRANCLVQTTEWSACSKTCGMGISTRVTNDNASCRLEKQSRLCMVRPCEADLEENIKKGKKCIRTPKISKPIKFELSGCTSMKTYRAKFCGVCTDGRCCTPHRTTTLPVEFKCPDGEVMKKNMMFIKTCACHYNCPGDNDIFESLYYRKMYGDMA


What was measured:
[1] = biological target: T1, Mouse CTGF protein-His tag; test: ELISA, plate coated with mouse CTGF-his
Procedure: The binding activity of anti-mouse CTGF antibody to mouse CTGF protein was tested by ELISA assay. A 96-well microtiter plate was directly coated with the mouse CTGF fusion protein. The signal strength upon the addition of the antibody was used to determine the binding activity of the antibody to mouse CTGF. The specific experimental procedures were as follows:
The mouse CTGF-his protein was diluted with PBS, pH 7.4 (Shanghai Yuanpei, Cat No. B320) buffer to a concentration of 0.5 μg/ml, added into the 96-well microtiter plate (Corning, Cat No. CLS3590-100EA) at 50 μl/well, and incubated in an incubator at 37° C. for 2 hours. The liquid was removed, 250 μl/well blocking solution (5% skim milk (BD skim milk, Cat No. 232100) diluted in PBS) was added, and incubated in an incubator at 37° C. for 3 hours or at 4° C. overnight (16-18 hours) for blocking. After the blocking was finished, the blocking solution was removed, the plate was washed for 3 times with PBST buffer (PBS containing 0.1% Tween-20, pH 7.4), 50 μl/well of various concentrations of each of the test antibodies (antibodies purified from hybridoma or humanized antibodies) diluted with sample dilution solution were added, and incubated in an incubator at 37° C. for 1 hours. After the incubation was finished, the plate was washed for 3 times with PBST, 50 μl/well of HRP-labeled goat anti-mouse secondary antibody (Jackson Immuno Research, Cat No. 115-035-003) or goat anti-human secondary antibody (Jackson Immuno Research, Cat No. 109-035-003) diluted with sample dilution solution was added, and incubated at 37° C. for 1 hour. The plate was washed for 5 times with PBST, 50 μl/well of TMB chromogenic substrate (KPL, Cat No. 52-00-03) was added, incubated at room temperature for 5-10min, and 50 μl/well of 1 M H₂SO₄ was added to stop the reaction. The absorbance value was read by a microplate reader (Molecular Devices, VERSA max) at a wavelength of 450 nm, and the data was analyzed with GraphPad Prism 5. The binding of CTGF antibody to mouse CTGF protein was calculated as EC50 value.

[2] = biological target: T2, human CTGF (antigen of the Biacore …); test: Biacore, antibody captured on Protein A, CTGF in flow, 1:1 fit
How it was run: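 Antibodies captured on a Protein A chip, with human or mouse CTGF flowed over in HBS-EP running buffer; association and dissociation recorded in real time. Surface regenerated with glycine-HCl pH 1.5 between cycles; kinetics fitted to a 1:1 model.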

[3] = biological target: T2, human CTGF (antigen of the Biacore …); test: Biacore, CTGF immobilised, antibody 150 µg/ml then 50 nM TGF-β1 (competitor TGF-β1)
Procedure: First, the antigen human CTGF was immobilized onto a CMS biosensor chip (Cat. # BR-1005-30, GE) by amino coupling, with an immobilization level of 1500 RU, and then a high concentration of CTGF antibody (150 μg/ml) was allowed to flow through the surface of the chip for 150 s; 50 nM TGF-β1 protein was injected for 120 s, and the reaction signals were detected in real time with the Biacore T200 instrument to generate a binding and dissociation curve. After the dissociation was completed in each of the experimental cycles, the biosensor chip was washed and regenerated with regeneration buffer.
The resulting experimental data were statistically analyzed with GE Biacore T200 Evaluation version 3.0 software.

| EC50 [1] [nM] | Kd [2] [nM] | koff [2] [s⁻¹] | kon [2] [M⁻¹ s⁻¹] | Function-blocking percentage (%) [3] [%] | Binder |
| --- | --- | --- | --- | --- | --- |
| 0.431 | 1.13 | 0.0554 | 4.89e+07 | 50.9 | Hu147-14wk (antibody, human IgG1, kappa, V domains shown) VH: EVQLVESGGGLVQPGGSLRLSCAASGFTFSTYAMNWVRQAPGKGLEWVGRIRTKSNNYATYYADSVKDRFTISRDDSKNSLYLQMNSLKTEDTAVYYCVETGFAYWDQGTLVTVSS VL: DIQMTQSPSSLSASVGDRVTITCSASSSVSYMHWFQQKPGKSPKLLIYSTSNLASGVPSRFSGSGSGTDYTLTISSLQPEDFATYYCQQRSSYPLTFGQGTKLEIKR |
| 0.664 | 1.05 | 0.0155 | 1.47e+07 | 56.2 | Hu147-34wk (antibody, human IgG1, kappa, V domains shown) VH: EVQLVESGGGLVQPGGSLRLSCAASGFSFNTYAMNWVRQAPGKGLEWVARIRTKSNNYATYYADSVKDRFTISRDDSESSLYLQMNSLKTEDTAVYYCVETGFAYWDQGTLVTVSS VL: DIQMTQSPSSLSASVGDRVTITCSASSSVSYMHWFQQKPGKSPKLLIYSTSNLASGVPSRFSGSGSGTDYTLTISSLQPEDFATYYCQQRSSYPLTFGQGTKLEIKR |
| 0.049 | 0.0379 | 0.00196 | 5.17e+07 | 55.5 | Hu164-67wl (antibody, human IgG1, lambda) heavy: not shown light: ETVVTQEPSLTVSPGGTVTLTCRSSIGAVTTSNYANWVQQKPGQAFRGLIGGTSNRAPWTPARFSGSLLGGKAALTLSGVQPEDEAEYYCALWYSTHYVFGGGTKLTVLGQPKANPTVTLFPPSSEELQANKATLVCLISDFYPGAVTVAWKADGSPVKAGVETTKPSKQSNNKYAASSYLSLTPEQWKSHRSYSCQVTHEGSTVEKTVAPTEC |
